Data set [1] is described as follows: [3H]-taurocholate uptake, Huh-7. As to conditions: glycan lost; control: NTCP-WT.
Data set [2] in a line: cell surface biotinylation, immunoblot. As to conditions: glycan lost; control: NTCP-WT. On the technique in general: A western blot detects proteins with antibodies after separation by electrophoresis.
The nature of data set [3]: anti-HA confocal immunofluorescence, HepG2. Particulars: glycan lost; control: NTCP-WT.
A short description of data set [4]: anti-HA IP-immunoblot, ImageJ quantification. Particulars: glycan lost; control: NTCP-WT.
Data set [5] in a line: Myrcludex B-FITC cell-surface fluorescence, plate reader. Particulars: glycan lost; control: NTCP-WT.
Data set [6] in a line: [3H]-taurocholate uptake, HepG2, untagged NTCP. As to conditions: glycan lost; control: untagged NTCP-WT.
Data set [7] can be described thus: [3H]-taurocholate uptake, 2 min, HepG2. As to conditions: glycan lost; control: NTCP-WT.
A short description of data set [8]: HBeAg ELISA, 3 days post infection, HepG2. Particulars: glycan lost; control: NTCP-WT. Background: An ELISA detects its analyte on a solid surface through an enzyme-linked reagent.
A short description of data set [9]: intracellular cccDNA qPCR, 3 days post infection, HepG2. As to conditions: glycan lost; control: NTCP-WT. In general terms: Quantitative PCR measures a nucleic acid by following its amplification.

These results are taken from article PMC5268470.

B1: Na+-taurocholate cotransporting polypeptide (NTCP): NTCP-N5,11Q (protein)
parent chain: MEAHNASAPFNFTLPPNFGKRPTDLALSVILVFMLFFIMLSLGCTMEFSKIKAHLWKPKGLAIALVAQYGIMPLTAFVLGKVFRLKNIEALAILVCGCSPGGNLSNVFSLAMKGDMNLSIVMTTCSTFCALGMMPLLLYIYSRGIYDGDLKDKVPYKGIVISLVLVLIPCTIGIVLKSKRPQYMRYVIKGGMIIILLCSVAVTVLSAINVGKSIMFAMTPLLIATSSLMPFIGFLLGYVLSALFCLNGRCRRTVSMETGCQNVQLCSTILNVAFPPEVIGPLFFFPLLYMIFQLGEGLLLIAIFWCYEKFKTPKDKTKMIYTAATTEETIPGALGNGTYKGEDCSPCTA
Take B1: in data set [1], the “other: transport activity” value was “decreases”. Moreover, the figures for the localisation_or_trafficking entry in [2], in data set [3] and in [5] were “abolishes”, “changes” and “decreases”, respectively. The expression_or_secretion entry in [4] is “decreases”.

B2: Na+-taurocholate cotransporting polypeptide (NTCP): untagged NTCP-N5,11Q (protein)
parent chain: B1 parent chain
Regarding B2, in data set [6], the “other: transport activity” value is reported as “decreases”.

B3: Na+-taurocholate cotransporting polypeptide (NTCP): NTCP-N5Q (protein)
parent chain: B1 parent chain
In the case of B3, in [7], the “other: transport activity” value is recorded as “no change”. The localisation_or_trafficking result was “no change” in [2], “no change” in [3] and “decreases” in data set [5]. Also, the “other: HBV receptor activity (infection)” value in data set [8] and in [9] was “no change” throughout.

B4: Na+-taurocholate cotransporting polypeptide (NTCP): NTCP-N11Q (protein)
parent chain: B1 parent chain
On to B4, for which the “other: transport activity” value in [7] is reported as “no change”. The results for the localisation_or_trafficking entry in [2], in data set [3] and in [5] were “no change”, “no change” and “decreases”, respectively. Further, the “other: HBV receptor activity (infection)” value in data set [8] and in data set [9] was “no change” each time.
